The labels stand for the following.
T1: EsCas13d, nuclease-dead (Eubacterium siraeum, UniProt B0MS50, R295A;H300A;R849A;H854A)
T1 sequence: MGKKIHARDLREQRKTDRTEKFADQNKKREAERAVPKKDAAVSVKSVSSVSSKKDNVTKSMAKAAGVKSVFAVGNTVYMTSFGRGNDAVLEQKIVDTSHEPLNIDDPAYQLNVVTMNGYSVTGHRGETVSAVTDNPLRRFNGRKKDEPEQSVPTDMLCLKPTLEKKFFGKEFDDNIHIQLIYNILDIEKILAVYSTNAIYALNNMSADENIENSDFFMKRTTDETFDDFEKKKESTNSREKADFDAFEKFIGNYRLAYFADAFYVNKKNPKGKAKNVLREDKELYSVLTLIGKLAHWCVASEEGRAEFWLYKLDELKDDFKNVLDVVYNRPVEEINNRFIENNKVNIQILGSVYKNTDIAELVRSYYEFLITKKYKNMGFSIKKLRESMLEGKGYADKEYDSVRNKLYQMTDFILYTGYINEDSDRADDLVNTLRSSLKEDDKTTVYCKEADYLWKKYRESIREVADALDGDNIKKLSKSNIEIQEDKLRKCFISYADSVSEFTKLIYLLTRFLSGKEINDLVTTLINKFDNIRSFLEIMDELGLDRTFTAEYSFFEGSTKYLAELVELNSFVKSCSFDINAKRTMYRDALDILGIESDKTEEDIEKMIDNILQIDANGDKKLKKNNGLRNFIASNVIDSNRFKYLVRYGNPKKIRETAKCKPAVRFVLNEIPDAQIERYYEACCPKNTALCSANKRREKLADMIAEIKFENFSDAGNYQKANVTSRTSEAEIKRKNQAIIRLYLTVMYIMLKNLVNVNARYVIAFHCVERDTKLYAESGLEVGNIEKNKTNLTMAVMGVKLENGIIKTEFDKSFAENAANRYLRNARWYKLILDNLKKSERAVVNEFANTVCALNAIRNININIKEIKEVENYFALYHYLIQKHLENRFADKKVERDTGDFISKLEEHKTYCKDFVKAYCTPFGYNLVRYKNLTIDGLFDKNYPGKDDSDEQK

B1: target 1 insG 3' of 22,insG 3' of 4 (mixed)
RNA 1: CACCCGUGCAAAAAUGCAGGGGUCUAAAACUGAGCGGAUAACCUCUCUAUGG
RNA 2: GGGAAUGGAUCCACAUCUACGAAUUCGUACGCAUAGAGAGGUUAUCCGCGUCACCGAGAUCGGAAGAGCACACGU
B2: target 1 insG 3' of 18,insG 3' of 6 (mixed)
RNA 1: B1 RNA 1
RNA 2: B1 RNA 2 with G31C, C32A, A33U, U34A, A35G, C49G, G50C
B3: target 1 insC 3' of 3,insG 3' of 3 (mixed)
RNA 1: B1 RNA 1
RNA 2: GGGAAUGGAUCCACAUCUACGAAUUCGUACCAUAGAGAGGUUAUCCGCUCGCACCGAGAUCGGAAGAGCACACGU
B4: target 2 MT 5'PFS CUU 3'PFS UAU (mixed)
RNA 1: CACCCGUGCAAAAUUGCAGGGGUCUAAAACCUUCUCCAAAUUGUUUCAUCCU
RNA 2: GGGAAUGGAUCCACAUCUACGAAUUCCUUAGGAUGAAACAAUUUGGAGAAGUAUAGAUCGGAAGAGCACACGU
B5: target 2 MT 5'PFS GGA 3'PFS CUU (mixed)
RNA 1: B4 RNA 1
RNA 2: B4 RNA 2 with C27G, U28G, U29A, U52C, A53U
B6: target 2 MT 5'PFS CGA 3'PFS CCG (mixed)
RNA 1: B4 RNA 1
RNA 2: B4 RNA 2 with U28G, U29A, U52C, A53C, U54G
B7: target 2 MT 5'PFS AAU 3'PFS UUA (mixed)
RNA 1: B4 RNA 1
RNA 2: B4 RNA 2 with C27A, U28A, A53U, U54A
B8: target 2 MT 5'PFS UCU 3'PFS AGA (mixed)
RNA 1: B4 RNA 1
RNA 2: B4 RNA 2 with C27U, U28C, U52A, A53G, U54A
B9: target 2 MT 5'PFS AAA 3'PFS CUC (mixed)
RNA 1: B4 RNA 1
RNA 2: B4 RNA 2 with C27A, U28A, U29A, U52C, A53U, U54C
B10: target 2 MT 5'PFS GCC 3'PFS AGG (mixed)
RNA 1: B4 RNA 1
RNA 2: B4 RNA 2 with C27G, U28C, U29C, U52A, A53G, U54G
B11: target 2 MT 5'PFS AAU 3'PFS UUC (mixed)
RNA 1: B4 RNA 1
RNA 2: B4 RNA 2 with C27A, U28A, A53U, U54C
B12: target 2 MT 5'PFS GGA 3'PFS CUA (mixed)
RNA 1: B4 RNA 1
RNA 2: B4 RNA 2 with C27G, U28G, U29A, U52C, A53U, U54A
B13: target 2 MT 5'PFS AUG 3'PFS UCU (mixed)
RNA 1: B4 RNA 1
RNA 2: B4 RNA 2 with C27A, U29G, A53C
B14: target 2 MT 5'PFS AAG 3'PFS CCG (mixed)
RNA 1: B4 RNA 1
RNA 2: B4 RNA 2 with C27A, U28A, U29G, U52C, A53C, U54G
B15: target 2 MT 5'PFS ACU 3'PFS CGG (mixed)
RNA 1: B4 RNA 1
RNA 2: B4 RNA 2 with C27A, U28C, U52C, A53G, U54G
B16: target 2 MT 5'PFS AUG 3'PFS UCC (mixed)
RNA 1: B4 RNA 1
RNA 2: B4 RNA 2 with C27A, U29G, A53C, U54C
B17: target 2 MT 5'PFS GGG 3'PFS CUG (mixed)
RNA 1: B4 RNA 1
RNA 2: B4 RNA 2 with C27G, U28G, U29G, U52C, A53U, U54G
B18: target 2 MT 5'PFS GGG 3'PFS CUC (mixed)
RNA 1: B4 RNA 1
RNA 2: B4 RNA 2 with C27G, U28G, U29G, U52C, A53U, U54C
B19: target 2 MT 5'PFS GCC 3'PFS CGG (mixed)
RNA 1: B4 RNA 1
RNA 2: B4 RNA 2 with C27G, U28C, U29C, U52C, A53G, U54G
B20: target 2 MT 5'PFS ACU 3'PFS CGC (mixed)
RNA 1: B4 RNA 1
RNA 2: B4 RNA 2 with C27A, U28C, U52C, A53G, U54C
B21: target 2 MT 5'PFS AAA 3'PFS CUU (mixed)
RNA 1: B4 RNA 1
RNA 2: B4 RNA 2 with C27A, U28A, U29A, U52C, A53U
B22: target 2 MT 5'PFS CGA 3'PFS UAC (mixed)
RNA 1: B4 RNA 1
RNA 2: B4 RNA 2 with U28G, U29A, U54C
B23: target 2 MT 5'PFS AAG 3'PFS CCA (mixed)
RNA 1: B4 RNA 1
RNA 2: B4 RNA 2 with C27A, U28A, U29G, U52C, A53C, U54A
B24: target 2 MT 5'PFS ACU 3'PFS CGA (mixed)
RNA 1: B4 RNA 1
RNA 2: B4 RNA 2 with C27A, U28C, U52C, A53G, U54A
B25: target 2 MT 5'PFS AUG 3'PFS UCA (mixed)
RNA 1: B4 RNA 1
RNA 2: B4 RNA 2 with C27A, U29G, A53C, U54A
B26: target 2 MT 5'PFS GUA 3'PFS AAC (mixed)
RNA 1: B4 RNA 1
RNA 2: B4 RNA 2 with C27G, U29A, U52A, U54C
B27: target 2 MT 5'PFS AAU 3'PFS UUU (mixed)
RNA 1: B4 RNA 1
RNA 2: B4 RNA 2 with C27A, U28A, A53U
B28: target 2 MT 5'PFS GGA 3'PFS CUC (mixed)
RNA 1: B4 RNA 1
RNA 2: B4 RNA 2 with C27G, U28G, U29A, U52C, A53U, U54C
B29: target 2 MT 5'PFS GCC 3'PFS CGC (mixed)
RNA 1: B4 RNA 1
RNA 2: B4 RNA 2 with C27G, U28C, U29C, U52C, A53G, U54C
B30: target 2 MT 5'PFS GGA 3'PFS CUG (mixed)
RNA 1: B4 RNA 1
RNA 2: B4 RNA 2 with C27G, U28G, U29A, U52C, A53U, U54G
B31: target 2 MT 5'PFS CGA 3'PFS CCA (mixed)
RNA 1: B4 RNA 1
RNA 2: B4 RNA 2 with U28G, U29A, U52C, A53C, U54A
B32: target 2 MT 5'PFS GGU 3'PFS AGU (mixed)
RNA 1: B4 RNA 1
RNA 2: B4 RNA 2 with C27G, U28G, U52A, A53G
B33: target 2 MT 5'PFS ACU 3'PFS CGU (mixed)
RNA 1: B4 RNA 1
RNA 2: B4 RNA 2 with C27A, U28C, U52C, A53G
B34: target 2 MT 5'PFS AGG 3'PFS CGC (mixed)
RNA 1: B4 RNA 1
RNA 2: B4 RNA 2 with C27A, U28G, U29G, U52C, A53G, U54C
B35: target 2 MT 5'PFS GCC 3'PFS CGA (mixed)
RNA 1: B4 RNA 1
RNA 2: B4 RNA 2 with C27G, U28C, U29C, U52C, A53G, U54A

Substitutions are numbered along the chain they refer to.

The data set concerns the target T1, EsCas13d, nuclease-dead. The data set can be described thus: crRNA (strand 1, pre-loaded); Mg2+; 40 mM Tris-HCl pH 7.5, 150 mM NaCl, 6 mM MgCl2, 1 mM DTT, 0.1% Tween-20, 0.2 mg/ml BSA; 25 C; 10 min per concentration, then washed. The note with it: tags: His6-TwinStrep-SUMO cleaved; N-terminal SNAP kept (SNAP-Surface 488); label: 3' end held by stalled T7 RNA polymerase.
For orientation: Kd means the constant that tells how readily two partners part at equilibrium. A low value points to tighter binding. In turn, B1 displayed a Kd of 26.2 ± 2.8 nM. For the molecule B2, the Kd was 71 ± 28 nM. This Kd lies about 2.7-fold higher than the previous one.

B3 returned a Kd of 8.5 ± 0.6 nM.

Turning to B4, the Kd is 3.22 ± 0.27 nM. This Kd lies about 2.6-fold lower than the previous one. As for B5, the figure is 10.5 ± 0.8 nM; as for B6, 11.1 ± 1.6 nM.

Regarding B7, binding was characterised by a dissociation constant (Kd) of 6.5 ± 0.8 nM.

In turn, B8 displayed a Kd of 40 ± 18 nM. This Kd lies about 6.2-fold higher than the previous one.

B9 returned a Kd of 6.5 ± 1.2 nM. In turn, B10 came in with a Kd of 16.4 ± 2.4 nM. Molecule B11 gave a Kd of 9.7 ± 1.5 nM. The molecule B12 yielded a Kd of 9.9 ± 1.3 nM.

As for B13, binding was put at a Kd of 17.4 ± 2.6 nM. Against the preceding molecule, the Kd is about 1.8-fold higher.

Regarding B14, binding was characterised by a dissociation constant (Kd) of 6.3 ± 0.9 nM. Take B15: the Kd came out at 3.47 ± 0.28 nM.

B16 gave a Kd of 24.4 ± 2.8 nM. In the case of B17, the affinity, expressed as Kd, was 11.7 ± 1 nM. This Kd lies about 2.1-fold lower than the previous one. With B18, binding was put at a Kd of 15.5 ± 1.6 nM. The Kd values of the last two molecules are within 1.5-fold of each other. B19 returned a Kd of 13.5 ± 2.2 nM. As for B20, the figure is 7.1 ± 1 nM; as for B21, 3.9 ± 0.6 nM; as for B22, 9.5 ± 1.9 nM. Turning to B23, the Kd came to 8.7 ± 1.6 nM. B24 came in with a Kd of 4.1 ± 0.4 nM.

Molecule B25 came in with a Kd of 15 ± 5 nM. As for B26, the figure is 6.2 ± 0.5 nM. For the molecule B27, the Kd came out at 12.4 ± 2.5 nM. B28 returned a Kd of 13.4 ± 1.5 nM. Turning to B29, the Kd is 11.4 ± 1.6 nM. With B30, the Kd came out at 9.2 ± 0.8 nM. Take B31: the Kd worked out at 31 ± 8 nM.

In turn, B32 gave a Kd of 17.7 ± 2.6 nM. Take B33: the affinity, expressed as Kd, was 8.1 ± 1.3 nM. As for B34, the figure is 4.7 ± 0.5 nM; as for B35, 14 ± 3.3 nM.
